Reference: paper PMC11974786 (bioRxiv, 2025)

Tests used:
KpOptS = biological target: T1, KpOptS (Klebsiella pneumoniae, UniProt A0A2G9LI54); assay: HPLC and LC-MS product analysis; assay type: biochemical; conditions: 100 μM OptS, 1 mM MnCl2, 10 mM MgSO4, pH 7.4, 100 mM NaCl
T1 sequence (A0A2G9LI54 1-119): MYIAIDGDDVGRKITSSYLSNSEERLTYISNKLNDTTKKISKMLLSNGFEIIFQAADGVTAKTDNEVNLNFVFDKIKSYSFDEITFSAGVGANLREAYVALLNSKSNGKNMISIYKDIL

[1] = biological target: OptS from Klebsiella pneumoniae strain KP67 (Klebsiella pneumoniae strain KP67); assay: SEC
[2] = biological target: OptS from Klebsiella pneumoniae strain KP67 (Klebsiella pneumoniae strain KP67); assay: SEC; remark: listed apart in the source
[3] = biological target: OptS from Klebsiella pneumoniae strain KP67 (Klebsiella pneumoniae strain KP67); assay: crystal structure

| Compound | HPLC and LC-MS product analysis (KpOptS) | stoichiometry N [1] | stoichiometry N [2] | stoichiometry N [3] |
| --- | --- | --- | --- | --- |
| Nc1ncnc2c1ncn2[C@@H]1O[C@H](COP(=O)(O)OP(=O)(O)OP(=O)(O)O)[C@@H](O)[C@H]1O [ATP] | The largest abundance product observed was derived from ATP |  |  |  |
| OptS from Klebsiella pneumoniae strain KP67 (enzyme) |  | 4 | > 3 | 4 |
